Data set [1] deals with AccR (LysR-type transcriptional regulator, SO_0839) (Shewanella oneidensis, UniProt Q8EIK0). As to the kind of experiment: ITC in HEPES buffer (Kd […]); also MST ([…]); no binding seen by ITC in Tris buffer.
Data set [2] concerns the molecule itself. As to the kind of experiment: SEC; His-tagged recombinant AccR purified from E. coli run on a Superdex 200HR 10/30 column (FPLC); two peaks with estimated molecular weights of ~67 and ~140 kDa.
Data set [3] deals with the molecule itself. As to the kind of experiment: crystal structure; AccR EBD (residues 86-303), apo form, hanging-drop vapor diffusion, 27.5% PEG 4000, 100 mM HEPES pH 7.0, 20°C; space group C2, one dimer in the asymmetric unit.

Values joined by “and” are separate entries in the source; they are usually repeats but may differ in a detail not shown here. Equal entries are not always repeated.

In general, Kd refers to the concentration at which binding is half-saturated. The low end stands for tighter binding, the high end for weaker binding. Molecule `CC(=O)SCCNC(=O)CCNC(=O)[C@H](O)C(C)(C)COP(=O)(O)OP(=O)(O)OC[C@H]1O[C@@H](n2cnc3c(N)ncnc32)[C@H](O)[C@@H]1OP(=O)(O)O` [acetyl-CoA] displayed a Kd in data set [1] of 8.4 ± 1.3 µM.

B1: AccR (SO_0839), LysR-type transcriptional regulator, His6-tagged recombinant (natural protein, Shewanella oneidensis, UniProt Q8EIK0 1-303, looked up)
chain: MPDLNGMMLFAAVVRAKGFSQAARETGHPKSTISRKIAQLEEELGVRLLQRDTRNLSLTQVGALFYQHCDSIRNEVEAAKAVIESTHDDVSGSLRIAIPVSFSQELIANLCSGFMRLYPNVELDVQFTDNDIGLVGEGYDIAIKYGPLQSSDLVARLLFERQPILVASPGYLKTRGTPATPKELSDHSGILLGTSRSAPIWPLGKGTRKTMVSFQRKVRVNSPIMVKQLALDDFGIAMLSNSACKTELANGQLVPILQEWPMEPFKVYGVYSSRRQLATNISAFLDFFVKRFSSQESLQSLMG
notes: AccR (SO_0839), LTTR of 303 amino acids, Shewanella oneidensis; full-length; calculated molecular weight of the recombinant protein 35.6 kDa; The methods describe growth of the BL21(DE3) cells in M9 medium supplemented with selenomethionine; also called ACCase regulator; His-tagged AccR; source: E. coli BL21(DE3), pET-28a, purified (Ni-NTA, size-exclusion chromatography); not shown: His6, …
In general, stoichiometry N refers to the number of molecules, sites or subunits per partner or assembly. As to B1, the “stoichiometry N” value in data set [2] is 2 and 4.

B2: AccR effector-binding domain (EBD, residues 86-303) (domain or fragment, Shewanella oneidensis, UniProt Q8EIK0 86-303, looked up)
chain: THDDVSGSLRIAIPVSFSQELIANLCSGFMRLYPNVELDVQFTDNDIGLVGEGYDIAIKYGPLQSSDLVARLLFERQPILVASPGYLKTRGTPATPKELSDHSGILLGTSRSAPIWPLGKGTRKTMVSFQRKVRVNSPIMVKQLALDDFGIAMLSNSACKTELANGQLVPILQEWPMEPFKVYGVYSSRRQLATNISAFLDFFVKRFSSQESLQSLMG
notes: the model holds residues 89-302 (subunit A) and 90-300 (subunit B); The methods describe expression in M9 medium with selenomethionine, but also say that diffraction data were collected with native protein crystals; also called AccR EBD; regulatory domain; source: E. coli BL21(DE3), pET-28a, purified (Ni-NTA, size-exclusion chromatography)
In the case of B2, the binding result in data set [3] is on record as “binds”.

These data come from publication PMC11602165, “A bacterial transcription activator dedicated to the expression of the enzyme catalyzing the first committed step in fatty acid biosynthesis” (Nucleic Acids Research, 2024).
